Laboratory results published in the supplement of paper PMC10567573.

B1: TSN (parent)
chain: AFVVYLETETLVTREAVTEILGIE
B2: MGC27345 (parent)
chain: KYMPHLCQDSSGEVSCQCQLHPPR

Variants of: B1
Experiment: protein stability index of a GFP-peptide fusion (GPS, HEK-293T) (PSI 1-6); higher = more stable
Conditions: c terminus: a fixed tail appended
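Also: lentivirally expressed fusions sorted by FACS into six bins by GFP to DsRed ratio, PSI derived from sequencing read proportions per bin multiplied by bin number.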

In order of rising protein stability index:
1. AFVVYLETETLVEREAVTEILGIE [T13E]  1.06
2. AFVVYLETETLVIREAVTEILGIE [T13I]  1.31
3. AFVVYLETETLVTREAVTEILGDE [I23D]  1.42
4. AFVVYLETETLVTREAVTEILGIW [E24W]  1.53
5. AFVVYLETETLVTREAVTEILGKE [I23K]  1.55
6. AFVVYLETETLVTREAVTEYLGIE [I20Y]  1.56
7. AFVVYLETETLVTREAVTEDLGIE [I20D]  1.6
8. AFVVYLETETLVWREAVTEILGIE [T13W]  1.62
9. AFVVYLETETLVKREAVTEILGIE [T13K]  1.63
10. AFVVYLETETLVTREAVTEPLGIE [I20P]  1.67
11. AFVVYLETETLVTREAVTEILGQE [I23Q]  1.69
12. AFVVYLETETLVTREAVTEILGCE [I23C]  1.7
13. AFVVYLETETLVNREAVTEILGIE [T13N]  1.72
14. AFVVYLETETLVTREAVTEILGWE [I23W]  1.79
15. AFVVYLETETLVTREAVTEILGTE [I23T]  1.79
16. AFVVYLETETLVTREAVTEILGAE [I23A]  1.8
17. AFVVYLETETLVDREAVTEILGIE [T13D]  1.81
18. AFVVYLETETLVTREAVTEILGEE [I23E]  2.03
19. AFVVYLETETLVTREAVTEILGIF [E24F]  2.03
20. AFVVYLETETLVHREAVTEILGIE [T13H]  2.05
21. AFVVYLETETLVGREAVTEILGIE [T13G]  2.1
22. AFVVYLETETLVTREAVTEILGIV [E24V]  2.23
23. AFVVYLETETLVTREAVTEILGLE [I23L]  2.26
24. AFVVYLETETLVTREAVTEILGIR [E24R]  2.27
25. AFVVYLETETLVVREAVTEILGIE [T13V]  2.31
26. AFVVYLETETLVTREAVTEILGID [E24D]  2.34
27. AFVVYLETETLVTREAVTEILGFE [I23F]  2.36
28. AFVVYLETETLVAREAVTEILGIE [T13A]  2.44
29. AFVVYLETETLVCREAVTEILGIE [T13C]  2.48
30. AFVVYLETETLVTREAVTEILGIS [E24S]  2.53
31. AFVVYLETETLYTREAVTEILGIE [V12Y]  2.53
32. AFVVYLETETLVTREAVTEALGIE [I20A]  2.66
33. AFVVYLETETLVTREAVTEHLGIE [I20H]  2.68
34. AFVVYLETETLVTREAVTEWLGIE [I20W]  2.75
35. AFVVYLETETLVTREAVTEILGHE [I23H]  2.75
36. AFVVYLETETLVTREAVTEILGIG [E24G]  2.84
37. AFVVYLETETLVTREAVTEKLGIE [I20K]  2.91
38. AFVVYLETETLVRREAVTEILGIE [T13R]  3.01
39. AFVVYLETETLVTREAVTEILGIQ [E24Q]  3.13
40. AFVVYLETETLVTREAVTEILGII [E24I]  3.19
41. AFVVYLETETLVTREAVTEILGIL [E24L]  3.3
42. AFVVYLETETLVTREAVTEILGIC [E24C]  3.31
43. AFVVYLETETLVYREAVTEILGIE [T13Y]  3.33
44. AFVVYLETETLVTREAVTEILGNE [I23N]  3.34
45. AFVVYLETETLVTREAVTEILGIK [E24K]  3.34
46. AFVVYLETETLVTREAVTEILGYE [I23Y]  3.36
47. AFVVYLETETLVTREAVTEILGIA [E24A]  3.43
48. AFVVYLETETLVTREAVTERLGIE [I20R]  3.48
49. AFVVYLETETLVMREAVTEILGIE [T13M]  3.48
50. AFVVYLETETLVFREAVTEILGIE [T13F]  3.68
51. AFVVYLETETLVTREAVTEILGVE [I23V]  3.69
52. AFVVYLETETLVTREAVTEFLGIE [I20F]  3.74
53. AFVVYLETETLVTREAVTELLGIE [I20L]  4.11
54. AFVVYLETETLVTREAVTEQLGIE [I20Q]  5.44

Variants of: B2
Experiment: as above
Conditions: c terminus: a fixed tail appended

In order of falling protein stability index:
1. KYMPHLCQDSSGEVSCQCQLQPPR [H21Q]  4.58
2. KYMPHLCQDSSGEVSCQCQLHPPG [R24G]  4.32
3. KYMPHLCQDSSGEVSCQCQLHPPS [R24S]  4.29
4. KYMPHLCQDSSGEVSCQCQLHPPL [R24L]  3.85
5. KYMPHLCQDSSGEVSCQCQLHPPI [R24I]  3.75
6. KYMPHLCQDSSGEVSCQAQLHPPR [C18A]  3.46
7. KYMPHLCQDSSGEVSCQCQLHEPR [P22E]  3.09
8. KYMPHLCQDSSGEVSCQCQLPPPR [H21P]  3.07
9. KYMPHLRQDSSGEVSCQCQLHPPR [C7R]  3.06
10. KYMPHSCQDSSGEVSCQCQLHPPR [L6S]  2.98
11. KYMPHLCQDSSGEVSLQCQLHPPR [C16L]  2.94
12. KYMPHLCQDSSGEVSCQCFLHPPR [Q19F]  2.71
13. KYMPHLCADSSGEVSCQCQLHPPR [Q8A]  2.65
14. KYMPHLCQDSSGEVSCQCNLHPPR [Q19N]  2.63
15. KYMPHLCNDSSGEVSCQCQLHPPR [Q8N]  2.54
16. KYMPHLCQDSSGEVSCQCQLHTPR [P22T]  2.49
17. KYMPHLCQDSSGEHSCQCQLHPPR [V14H]  2.48
18. KYMPHLCQDSSGEVSCQCQLHCPR [P22C]  2.47
19. KYDPHLCQDSSGEVSCQCQLHPPR [M3D]  2.34
20. KYHPHLCQDSSGEVSCQCQLHPPR [M3H]  2.28
21. KYMPHLCQTSSGEVSCQCQLHPPR [D9T]  2.14
22. KYMPHLCQDSDGEVSCQCQLHPPR [S11D]  2.13
23. KYMPHLCQDSSGEVSCQCMLHPPR [Q19M]  2.13
24. KYMPHLCQDSSGEVSCQCLLHPPR [Q19L]  2.12
25. KYMPHHCQDSSGEVSCQCQLHPPR [L6H]  2.1
26. KYMPHLCQDASGEVSCQCQLHPPR [S10A]  2.06
27. KYMPHLCQDSSGEVSCQCQKHPPR [L20K]  2.04
28. KYMPHLCQDSSAEVSCQCQLHPPR [G12A]  2
29. KYMPHLCQDSSGMVSCQCQLHPPR [E13M]  1.89
30. KYMNHLCQDSSGEVSCQCQLHPPR [P4N]  1.78
31. KYMLHLCQDSSGEVSCQCQLHPPR [P4L]  1.7
32. KYMPHLCQDSSGEVSCACQLHPPR [Q17A]  1.66
33. KYMPHLCQDSRGEVSCQCQLHPPR [S11R]  1.66
34. KYMPHLYQDSSGEVSCQCQLHPPR [C7Y]  1.63
35. KYMPHLCQDSSGEVSCGCQLHPPR [Q17G]  1.62
36. KYMPHFCQDSSGEVSCQCQLHPPR [L6F]  1.59
37. KYMPHLCQDSSGEVSCQCQLLPPR [H21L]  1.51
38. KYMIHLCQDSSGEVSCQCQLHPPR [P4I]  1.49
39. KYMPHLCQDSVGEVSCQCQLHPPR [S11V]  1.45
40. KYQPHLCQDSSGEVSCQCQLHPPR [M3Q]  1.05
